The nature of one series: in vivo. Set-up: species or system mice. To be noted: CD-1 athymic nude, mouse, total radioactivity. Here is the method: Biodistribution of ^68Ga-R3PEG4P9
Biodistribution studies were performed using CD-1 athymic nude mice bearing human melanoma xenografts on both shoulders (right: M21 cell line with high αvβ3 integrin xexpression, left: M21L cell line with low αvβ3 integrin expression). The mice were injected 6-9 MBq of ^68Ga-R3PEG4P9 (specific activity: ca. 900 GBq/μmol, corresponding to approx. 7-10 pmol of the tracer). After the specified time points (60 and 120 min, respectively), the mice were sacrificed, the organs taken out and counted in a gamma counter. For blockade, the mice were administered 200 μg (approx. 10 mg/kg) of unlabeled R3PEG4P9 10 min before tracer injection.
Data is visualized in the chart (FIG. 3).

In series [1] the test system is CD-1 athymic nude mice bearing human melanoma xenografts. To be noted: mouse.
The next series addresses T1, αvβ3 integrin (Homo sapiens, UniProt P05106+P06756).
T1 construct: endogenous in cells; host or cells: M21 human melanoma cells
In words: In vitro binding assay: displacement of 125I-echistatin on M21 human melanoma cells. As to conditions: log IC50. For orientation: In a radioligand displacement assay an active substance lowers the binding of a labelled ligand.

A short description of series [2]: Log P determination: octanol-water partition coefficient (1-octanol/PBS) of the labelled compound.
Protocol: Octanol-water partition coefficients were determined by addition of ca. 50 kBq of the respective labelled compound to Eppendorf cup containing each 500 μl of 1-octanol and isotonic phosphate buffered saline (PBS). After 2 min of vigorous stirring, the phases were separated by centrifugation, 100 μl aliquots of each phase taken out and the activity contained determined with a gamma counter. Each experiment was repeated 5-8 times.

Where two headings read alike, the source gives them in different places.

In general, IC50 refers to the concentration that gives 50% inhibition. A high value points to weaker potency. As usually defined, the logP is a log measure of how a compound divides between an organic and an aqueous phase.

T1 sequence (P06756 31-889 limits assumed): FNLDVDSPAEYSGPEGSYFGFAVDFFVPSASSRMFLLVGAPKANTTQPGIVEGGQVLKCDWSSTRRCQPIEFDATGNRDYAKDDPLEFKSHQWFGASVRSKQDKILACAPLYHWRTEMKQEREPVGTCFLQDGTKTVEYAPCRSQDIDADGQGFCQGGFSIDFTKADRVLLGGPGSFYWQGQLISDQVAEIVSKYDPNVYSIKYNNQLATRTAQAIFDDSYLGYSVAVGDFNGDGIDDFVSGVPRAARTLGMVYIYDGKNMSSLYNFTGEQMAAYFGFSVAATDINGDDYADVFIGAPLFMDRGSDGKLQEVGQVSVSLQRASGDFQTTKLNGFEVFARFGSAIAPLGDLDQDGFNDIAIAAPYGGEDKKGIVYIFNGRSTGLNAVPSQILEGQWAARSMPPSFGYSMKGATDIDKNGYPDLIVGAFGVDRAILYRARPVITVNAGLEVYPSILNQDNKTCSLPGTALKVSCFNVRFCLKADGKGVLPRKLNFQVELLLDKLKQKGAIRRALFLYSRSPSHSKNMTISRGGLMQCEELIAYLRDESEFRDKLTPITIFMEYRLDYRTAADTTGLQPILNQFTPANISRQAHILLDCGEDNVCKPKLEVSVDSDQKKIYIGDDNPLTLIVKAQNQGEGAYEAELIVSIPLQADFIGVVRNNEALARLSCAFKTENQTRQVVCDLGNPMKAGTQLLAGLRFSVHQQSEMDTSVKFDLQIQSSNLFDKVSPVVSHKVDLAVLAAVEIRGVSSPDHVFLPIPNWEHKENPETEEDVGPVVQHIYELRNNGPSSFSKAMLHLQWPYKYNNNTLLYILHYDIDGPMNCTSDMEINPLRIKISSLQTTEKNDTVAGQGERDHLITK
T1 sequence (P06756 891-1048 partner limits assumed): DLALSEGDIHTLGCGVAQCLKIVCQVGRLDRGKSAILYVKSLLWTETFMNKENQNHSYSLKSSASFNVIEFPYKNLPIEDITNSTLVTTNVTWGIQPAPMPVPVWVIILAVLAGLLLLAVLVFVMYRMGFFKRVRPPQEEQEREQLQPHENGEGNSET
T1 sequence (P05106 27-788): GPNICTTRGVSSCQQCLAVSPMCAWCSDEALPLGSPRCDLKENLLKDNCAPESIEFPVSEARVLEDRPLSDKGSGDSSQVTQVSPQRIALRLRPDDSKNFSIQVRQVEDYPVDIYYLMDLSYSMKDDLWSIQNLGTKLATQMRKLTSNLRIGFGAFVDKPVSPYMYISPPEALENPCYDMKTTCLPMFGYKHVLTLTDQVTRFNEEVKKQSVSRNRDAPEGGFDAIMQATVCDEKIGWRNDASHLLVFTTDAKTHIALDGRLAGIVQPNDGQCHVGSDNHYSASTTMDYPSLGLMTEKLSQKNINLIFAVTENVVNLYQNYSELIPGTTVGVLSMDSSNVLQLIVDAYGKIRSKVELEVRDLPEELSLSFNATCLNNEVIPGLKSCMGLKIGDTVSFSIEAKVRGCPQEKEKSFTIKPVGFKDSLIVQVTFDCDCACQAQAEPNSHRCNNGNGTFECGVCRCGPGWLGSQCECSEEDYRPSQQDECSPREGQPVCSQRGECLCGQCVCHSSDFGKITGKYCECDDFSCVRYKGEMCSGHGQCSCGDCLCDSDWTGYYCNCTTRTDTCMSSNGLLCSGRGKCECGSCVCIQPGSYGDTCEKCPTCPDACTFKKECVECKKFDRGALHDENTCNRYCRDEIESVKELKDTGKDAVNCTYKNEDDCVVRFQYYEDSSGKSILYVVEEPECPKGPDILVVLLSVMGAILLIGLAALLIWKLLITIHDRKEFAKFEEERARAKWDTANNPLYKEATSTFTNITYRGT

With `N=C(N)NCCC[C@@H]1NC(=O)[C@H](CCCCNC(=O)CCOCCOCCOCCOCCNC(=O)CCP(=O)(O)CN2CCN(CP(=O)(O)CCC(=O)NCCOCCOCCOCCOCCC(=O)NCCCC[C@@H]3NC(=O)[C@@H](Cc4ccccc4)NC(=O)[C@H](CC(=O)O)NC(=O)CNC(=O)[C@H](CCCNC(=N)N)NC3=O)CCN(CP(=O)(O)CCC(=O)NCCOCCOCCOCCOCCC(=O)NCCCC[C@@H]3NC(=O)[C@@H](Cc4ccccc4)NC(=O)[C@H](CC(=O)O)NC(=O)CNC(=O)[C@H](CCCNC(=N)N)NC3=O)CC2)NC(=O)[C@@H](Cc2ccccc2)NC(=O)[C@H](CC(=O)O)NC(=O)CNC1=O` (single isomer, unassigned) [68Ga-R3PEG4P9, metal not drawn], the tissue uptake at 1 h in “in vivo” (adrenal gland, 60 min, blocked, read-out: uptake % ID/g, adrenal gland) was determined as 0.36 %ID/g; in the series “in vivo” (adrenal gland, 60 min, read-out: uptake % ID/g, adrenal gland), 27.8 %ID/g; in the series “in vivo” (blood, 60 min, blocked (200 μg unlabeled R3PEG4P9 10 min before), read-out: uptake % ID/g, blood), 0.09 %ID/g; in the series “in vivo” (blood, 60 min after tracer injection, read-out: uptake % ID/g, blood), 0.31 %ID/g; in the series “in vivo” (heart, 60 min, blocked, read-out: uptake % ID/g, heart), 0.08 %ID/g; in the series “in vivo” (heart, 60 min, read-out: uptake % ID/g, heart), 1.29 %ID/g. In addition, the tissue uptake at 1 h came to 1.97 %ID/g in the series “in vivo” (kidneys, 60 min, blocked, read-out: uptake % ID/g, kidneys); 10.2 %ID/g in “in vivo” (kidneys, 60 min, read-out: uptake % ID/g, kidneys); 0.11 %ID/g in the series “in vivo” (large int., 60 min, blocked, read-out: uptake % ID/g, large int.); 2.44 %ID/g in “in vivo” (large int., 60 min, read-out: uptake % ID/g, large int.); 0.32 %ID/g in “in vivo” (liver, 60 min, blocked, read-out: uptake % ID/g, liver); 5.18 %ID/g in the series “in vivo” (liver, 60 min, read-out: uptake % ID/g, liver). Besides, the tissue uptake at 1 h in “in vivo” (lung, 60 min, blocked, read-out: uptake % ID/g, lung) was 0.54 %ID/g; in “in vivo” (lung, 60 min, read-out: uptake % ID/g, lung), 2.96 %ID/g; in “in vivo” (muscle, 60 min, blocked, read-out: uptake % ID/g, muscle) it was 0.05 %ID/g; in “in vivo” (muscle, 60 min, read-out: uptake % ID/g, muscle), 0.95 %ID/g; in “in vivo” (pancreas, 60 min, blocked, read-out: uptake % ID/g, pancreas) it was 0.07 %ID/g; in the series “in vivo” (pancreas, 60 min, read-out: uptake % ID/g, pancreas), 0.88 %ID/g. In addition, the tissue uptake at 1 h in the series “in vivo” (small int., 60 min, blocked, read-out: uptake % ID/g, small int.) was 0.24 %ID/g; in “in vivo” (small int., 60 min, read-out: uptake % ID/g, small int.), 4.92 %ID/g; in “in vivo” (spleen, 60 min, blocked, read-out: uptake % ID/g, spleen), 0.24 %ID/g; in the series “in vivo” (spleen, 60 min, read-out: uptake % ID/g, spleen), 3.38 %ID/g; in the series “in vivo” (stomach, 60 min, blocked, read-out: uptake % ID/g, stomach), 0.17 %ID/g; in the series “in vivo” (stomach, 60 min, read-out: uptake % ID/g, stomach), 4.43 %ID/g. Further, the tissue uptake at 1 h in “in vivo” (thyroid, 60 min, blocked, read-out: uptake % ID/g, thyroid) was 0.17 %ID/g; in the series “in vivo” (thyroid, 60 min, read-out: uptake % ID/g, thyroid), 3.27 %ID/g; in the series “in vivo” (tumor M21 (high αvβ3), 60 min, blocked, read-out: uptake % ID/g, tumor M21) it was 0.62 %ID/g; in the series “in vivo” (tumor M21 (high αvβ3), 60 min, read-out: uptake % ID/g, tumor M21), 6.08 %ID/g; in the series “in vivo” (tumor M21L (low αvβ3), 60 min, blocked, read-out: uptake % ID/g, tumor M21L), 0.31 %ID/g; in “in vivo” (tumor M21L (low αvβ3), 60 min, read-out: uptake % ID/g, tumor M21L) it was 1.48 %ID/g. In addition, the tissue uptake at 2 h in “in vivo” (adrenal gland, 120 min, read-out: uptake % ID/g, adrenal gland) was 24.2 %ID/g; in “in vivo” (blood, 120 min after tracer injection, read-out: uptake % ID/g, blood), 0.16 %ID/g; in “in vivo” (heart, 120 min, read-out: uptake % ID/g, heart), 1.47 %ID/g; in the series “in vivo” (kidneys, 120 min, read-out: uptake % ID/g, kidneys), 8.63 %ID/g; in “in vivo” (large int., 120 min, read-out: uptake % ID/g, large int.), 2.27 %ID/g; in “in vivo” (liver, 120 min, read-out: uptake % ID/g, liver), 3.97 %ID/g. In addition, the tissue uptake at 2 h was found to be 2.15 %ID/g in “in vivo” (lung, 120 min, read-out: uptake % ID/g, lung); 0.67 %ID/g in the series “in vivo” (muscle, 120 min, read-out: uptake % ID/g, muscle); 0.81 %ID/g in “in vivo” (pancreas, 120 min, read-out: uptake % ID/g, pancreas); 3.75 %ID/g in “in vivo” (small int., 120 min, read-out: uptake % ID/g, small int.); 3.5 %ID/g in the series “in vivo” (spleen, 120 min, read-out: uptake % ID/g, spleen); 3.56 %ID/g in the series “in vivo” (stomach, 120 min, read-out: uptake % ID/g, stomach). Moreover, the tissue uptake at 2 h was determined as 2.89 %ID/g in “in vivo” (thyroid, 120 min, read-out: uptake % ID/g, thyroid); 4.63 %ID/g in the series “in vivo” (tumor M21 (high αvβ3), 120 min, read-out: uptake % ID/g, tumor M21); 1.7 %ID/g in “in vivo” (tumor M21L (low αvβ3), 120 min, read-out: uptake % ID/g, tumor M21L). Moreover, the “fraction of the blood activity in the plasma after centrifugation” value in series [1] (in vivo) worked out at 96%. The “metabolites in tissue extracts, plasma and urine (radio-HPLC)” value in series [1] (in vivo) is “no metabolites could be detected”.
In the case of `N=C(N)NCCC[C@@H]1NC(=O)[C@H](CCCCNC(=O)CCOCCOCCOCCOCCNC(=O)CCP(=O)(O)CN2CCN(CP(=O)(O)CCC(=O)NCCOCCOCCOCCOCCC(=O)NCCCC[C@@H]3NC(=O)[C@H](Cc4ccccc4)NC(=O)[C@H](CC(=O)O)NC(=O)CNC(=O)[C@H](CCCNC(=N)N)NC3=O)CCN(CP(=O)(O)CCC(=O)NCCOCCOCCOCCOCCC(=O)NCCCC[C@@H]3NC(=O)[C@@H](Cc4ccccc4)NC(=O)[C@@H](CC(=O)O)NC(=O)CNC(=O)[C@@H](CCCNC(=N)N)NC3=O)CC2)NC(=O)[C@H](Cc2ccccc2)NC(=O)[C@H](CC(=O)O)NC(=O)CNC1=O` [Compound R3PEG4P9], the IC50 on αvβ3 integrin was 0.0427 µM. Further, in series [1], the “stability in vivo (analysis of metabolites)” value is recorded as “fully stable in vivo”.
On to `N=C(N)NCCC[C@@H]1NC(=O)[C@H](CCCCNC(=O)CCOCCOCCOCCOCCOCCOCCOCCOCCNC(=O)CCP(=O)(O)CN2CCN(CP(=O)(O)CCC(=O)NCCOCCOCCOCCOCCOCCOCCOCCOCCC(=O)NCCCC[C@@H]3NC(=O)[C@@H](Cc4ccccc4)NC(=O)[C@H](CC(=O)O)NC(=O)CNC(=O)[C@H](CCCNC(=N)N)NC3=O)CCN(CP(=O)(O)CCC(=O)NCCOCCOCCOCCOCCOCCOCCOCCOCCC(=O)NCCCC[C@@H]3NC(=O)[C@@H](Cc4ccccc4)NC(=O)[C@H](CC(=O)O)NC(=O)CNC(=O)[C@H](CCCNC(=N)N)NC3=O)CC2)NC(=O)[C@@H](Cc2ccccc2)NC(=O)[C@H](CC(=O)O)NC(=O)CNC1=O` [Ga-R3PEG8P9], for which the lipophilicity (logP) in series [2] is -4.13 ± 0.16.

The values above are taken from US9260483B2, “Triazacyclononane-based phosphinate ligand and its use for molecular imaging” (TECHNISCHE UNIVERSITÄT MÜNCHEN, priority 2011, dated 2016).
